Data from publication PMC7858651, “Modulation of Increased mGluR1 Signaling by RGS8 Protects Purkinje Cells From Dendritic Reduction and Could Be a Common Mechanism in Diverse Forms of Spinocerebellar Ataxia” (Frontiers in Cell and Developmental Biology, 2020).

Columns and labels:
wild-type PKCγ-tGFP = target: T1, wild-type PKCγ-tGFP (UniProt P05129 1-697); experiment: co-IP; HEK293T cells expressing mGluR1, transfected with PKCγ-tGFP, PKCγ(S361G)-tGFP or tGFP alone; tGFP trap agarose beads (Chromotek); IPs blotted with anti-mGluR1 and anti-tGFP; amounts quantified and normalised to wild-type PKCγ-tGFP; conditions: partners not purified
T1 construct: Protein Kinase C gamma (PKCγ), wild type; plasmid pCMV-PKCγ-tGFP, a gift (Shimobayashi and Kapfhammer, 2017); also called WT PKCγ; source: HEK293T, transfected (pCMV-PKCγ-tGFP), in lysate

PKCγ(S361G)-tGFP = target: T2, PKCγ(S361G)-tGFP (human, UniProt P05129 1-697, S361G); experiment: as above; conditions: partners not purified
T2 construct: Protein Kinase C gamma (PKCγ) with the SCA14-associated human mutation S361G; plasmid pCMV-PKCγ(S361G)-tGFP, a gift (Shimobayashi and Kapfhammer, 2017); also called mutated PKCγ(S361G); mutant PKCγ(S361G); source: HEK293T, transfected (pCMV-PKCγ(S361G)-tGFP), in lysate

relative amount bound, normalised to wild-type PKCγ-tGFP (wild-type PKCγ-tGFP): 1 relative to wild-type PKCγ-tGFP | relative amount bound, normalised to wild-type PKCγ-tGFP (PKCγ(S361G)-tGFP): 1.26 relative to wild-type PKCγ-tGFP
B1: metabotropic glutamate receptor 1 (mGluR1) (receptor, UniProt P97772 21-1199, looked up)
chain: RMPDRKVLLAGASSQRSVARMDGDVIIGALFSVHHQPPAEKVPERKCGEIREQYGIQRVEAMFHTLDKINADPVLLPNITLGSEIRDSCWHSSVALEQSIEFIRDSLISIRDEKDGLNRCLPDGQTLPPGRTKKPIAGVIGPGSSSVAIQVQNLLQLFDIPQIAYSATSIDLSDKTLYKYFLRVVPSDTLQARAMLDIVKRYNWTYVSAVHTEGNYGESGMDAFKELAAQEGLCIAHSDKIYSNAGEKSFDRLLRKLRERLPKARVVVCFCEGMTVRGLLSAMRRLGVVGEFSLIGSDGWADRDEVIEGYEVEANGGITIKLQSPEVRSFDDYFLKLRLDTNTRNPWFPEFWQHRFQCRLPGHLLENPNFKKVCTGNESLEENYVQDSKMGFVINAIYAMAHGLQNMHHALCPGYVGLCDAMKPIDGRKLLDFLIKSSFVGVSGEEVWFDEKGDAPGRYDIMNLQYTEANRYDYVHVGTWHEGVLNIDDYKIQMNKSGMVRSVCSEPCLKGQIKVIRKGEVSCCWICTACKENEFVQDEFTCRACDLGWWPNAELTGCEPITIRYLEWSDIESIIAIAFSCLGILVTLFVTLIFVLYRDTPVVKSSSRELCYIILAGIFLGYVCPFTLIAKPTTTSCYLQRLLVGLSSAMCYSALVTKTNRIARILAGSKKKICTRKPRFMSAWAQVIIASILISVQLTLVVTLIIMEPPMPILSYPSIKEVYLICNTSNLGVVAPVGYNGLLIMSCTYYAFKTRNVPANFNEAKYIAFTMYTTCIIWLAFVPIYFGSNYKIITTCFAVSLSVTVALGCMFTPKMYIIIAKPERNVRSAFTTSDVVRMHVGDGKLPCRSNTFLNIFRRKKPGAGNANSNGKSVSWSEPGGRQAPKGQHVWQRLSVHVKTNETACNQTAVIKPLTKSYQGSGKSLTFSDASTKTLYNVEEEDNTPSTHFSPPSSPSMVVHRRGPPVATTPPLPPHLSAEETPLFLADSVIPKGLPPPLPQQQQQPPPQPPPQQPKSLMDQLQGVVTNFGSGIPDFHAVLAGPGTPGNGLRSLYPPPPPPQHLQMLPLQLSTFREEPISPPGEDDDDDSSERFKLLQEFVYEREGNTEEDDLEEEEDLPAASKLTPEDSPALTPPSPFRDSVASGSSVPSSPVSESVLCTPPNVTYASVILRDYKQSSSTL
notes: metabotropic glutamate receptor 1 (mGluR1), expressed from the vector pCMV-mGluR1 bought from Origene; source: HEK293T, transfected (pCMV-mGluR1, Origene), in lysate
